{
  "source": "paper PMC8073056",
  "molecular_target": "purified full-length Arpin (N-terminal 6xHis-tagged) (human) (UniProt Q7Z6K5)",
  "test": "SEC-MALS; purified Arpin and purified ARC4 of TNKS2 mixed; 15-mL KW-803 column (Shodex), dn/dc 0.183 mL/g",
  "data": [
    {"substance": "ARC4 of TNKS2 (purified)", "values": [
      {"measurement": "stoichiometry N", "result": 1}
    ]}
  ]
}
